The values that follow come from PMC9294072.

Where two headings read alike, the source gives them in different places.

Experiment [1] has as its target human N-terminal acetyltransferase D (hNatD) (human) (UniProt Q86UY6).
For experiment [2] the target is unchanged. This is another data set of the same source.
Experiment [3] shares this target. This is another data set of the same source.

“oncohistone H4/H2A pentapeptide R3C (SGCGK)”: the kcat/Km of Nα-acetylation by hNatD (MALDI-MS assay) in experiment [1] worked out at 1830 M⁻¹ s⁻¹.

For the substance “oncohistone H4/H2A pentapeptide G4D (from UniProt P62805 2-6)”, the kcat/Km of Nα-acetylation by hNatD (continuous fluorescence assay) in experiment [2] was determined as 483 M⁻¹ s⁻¹.

Take “oncohistone H4/H2A pentapeptide R3Q (from UniProt P62805 2-6)”: in experiment [1], the kcat/Km of Nα-acetylation by hNatD (continuous fluorescence assay) worked out at 157 M⁻¹ s⁻¹.

Consider “oncohistone H4/H2A pentapeptide S1L (from UniProt P62805 2-6)”, for which the kcat/Km of Nα-acetylation by hNatD (continuous fluorescence assay) in experiment [3] came out at 4.17 M⁻¹ s⁻¹.

Turning to “oncohistone H4/H2A pentapeptide G4V (from UniProt P62805 2-6)”, in experiment [2], the kcat/Km of Nα-acetylation by hNatD (continuous fluorescence assay) was determined as 3500 M⁻¹ s⁻¹.

Take “oncohistone H4/H2A pentapeptide R3H (from UniProt P62805 2-6)”: the kcat/Km of Nα-acetylation by hNatD (continuous fluorescence assay) in experiment [1] was found to be 4830 M⁻¹ s⁻¹.
